Article PMC11841054 (Journal of Bacteriology, 2025)

Target: GlnA3Mt (Rv1878), gamma-glutamylspermine synthetase of Mycobacterium tuberculosis (Mycobacterium tuberculosis H37Rv) (UniProt O07752)
Experiment: SEC

GlnA3Mt (Rv1878), gamma-glutamylspermine synthetase of Mycobacterium tuberculosis (from UniProt O07752 1-450) (enzyme)
stoichiometry N: 12
